Source: patent US20250019438A1 (AstraZeneca / MedImmune, published 2025)

Experiments:
[1] = target: Biotinylated recombinant human CD3εδ (Acro Biosystems, CDD-H82W6) (human) (UniProt P07766); assay: Octet BLI, biotinylated CD3εδ on streptavidin sensors, 1:1 model
[2] = target: T1, Human CD3 on HPB-ALL and Jurkat cells (human, UniProt P07766 23-207; P04234 22-171; P09693 23-182); assay: flow cytometry on HPB-ALL cells (hCD3+), detection with Alexa Fluor 647 goat F(ab')2 anti-human IgG Fcγ
T1 construct: whole, on cells; also called hCD3+; human CD3+ cells
T1 sequence (P07766 23-207, chain 1 of 3): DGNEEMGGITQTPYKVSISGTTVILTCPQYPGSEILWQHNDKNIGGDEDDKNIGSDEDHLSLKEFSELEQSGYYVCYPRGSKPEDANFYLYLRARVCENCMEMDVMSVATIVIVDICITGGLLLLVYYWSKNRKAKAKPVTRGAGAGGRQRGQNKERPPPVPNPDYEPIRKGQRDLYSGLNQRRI
T1 sequence (P04234 22-171, chain 2 of 3): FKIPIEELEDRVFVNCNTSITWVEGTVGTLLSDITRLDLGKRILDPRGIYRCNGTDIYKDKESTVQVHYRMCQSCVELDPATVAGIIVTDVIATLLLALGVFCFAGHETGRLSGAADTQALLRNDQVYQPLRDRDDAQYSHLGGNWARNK
T1 sequence (P09693 23-182, chain 3 of 3): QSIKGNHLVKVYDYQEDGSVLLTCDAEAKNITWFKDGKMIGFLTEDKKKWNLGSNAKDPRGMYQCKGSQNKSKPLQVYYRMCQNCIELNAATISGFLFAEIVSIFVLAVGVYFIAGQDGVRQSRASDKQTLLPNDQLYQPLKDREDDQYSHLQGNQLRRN
Method: (§1) Flow Cytometry was used to determine specific cell surface antigen binding. The human leukemia T cell lines HPB-ALL, Jurkat, Jurkat TCR KO, and cynomolgus T cell line HSC-F were used to assess human CD3 and cynomolgus CD3 binding, respectively. Briefly, 1×10⁵ cells were suspended in FACS buffer (1×PBS, pH 7.2 supplemented with 2% heat-inactivated FBS, 0.1% sodium azide and 2 mM EDTA) and placed into each well of a round-bottom 96-well plate. Antibodies were diluted to various concentrations using FACS buffer and added to the cells. Antibodies and cells were washed twice with FACS buffer after incubation at 4° C. for 30 min. Cell surface antigen binding of antibodies was detected with Alexa Fluor 647-conjugated goat F(ab′)₂ fragment specifically against human IgG Fcγ fragment. Data was collected using a BD FACSymphony A3 Cell Analyzer (BD Biosciences). Data was analyzed with FlowJo v10.6.1 and plotted using GraphPad Prism v9.0.0.

[3] = target: T2, Cynomolgus monkey CD3 on HSC-F cells (cynomolgus monkey, UniProt Q95LI5 22-198; Q95LI8 22-171; Q95LI7 23-181); assay: flow cytometry on HSC-F cells (cyCD3++), detection with Alexa Fluor 647 goat F(ab')2 anti-human IgG Fcγ
T2 construct: whole, on cells; CD3 complex; also called cyCD3+; cynomolgus CD3+ cells
T2 sequence (Q95LI5 22-198, chain 1 of 3): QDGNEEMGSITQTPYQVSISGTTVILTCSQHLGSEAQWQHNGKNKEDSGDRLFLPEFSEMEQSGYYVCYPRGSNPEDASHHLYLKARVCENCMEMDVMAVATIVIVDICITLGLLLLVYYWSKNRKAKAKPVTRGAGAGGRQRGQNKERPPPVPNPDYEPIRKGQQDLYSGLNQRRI
T2 sequence (Q95LI8 22-171, chain 2 of 3): as the sequence (P04234 22-171, chain 2 of 3) above, with I5V, N15K, I20V, S32T, D33N, I34N, T64A, S74N, V83L, H141R counted along it
T2 sequence (Q95LI7 23-181, chain 3 of 3): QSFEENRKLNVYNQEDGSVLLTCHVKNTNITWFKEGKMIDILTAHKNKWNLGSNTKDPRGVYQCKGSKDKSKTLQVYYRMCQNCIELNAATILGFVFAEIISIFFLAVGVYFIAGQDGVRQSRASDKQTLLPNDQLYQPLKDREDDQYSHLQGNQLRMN
Method: as §1

Sequence of Biotinylated recombinant human CD3εδ (Acro Biosystems, CDD-H82W6) (human) (P07766 23-126, stated change not applied, chain 1 of 2): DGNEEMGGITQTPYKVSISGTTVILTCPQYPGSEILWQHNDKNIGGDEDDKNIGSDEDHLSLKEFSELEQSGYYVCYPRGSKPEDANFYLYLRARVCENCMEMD
Sequence of Biotinylated recombinant human CD3εδ (Acro Biosystems, CDD-H82W6) (human) (P04234 22-105, stated change not applied, chain 2 of 2, further chain): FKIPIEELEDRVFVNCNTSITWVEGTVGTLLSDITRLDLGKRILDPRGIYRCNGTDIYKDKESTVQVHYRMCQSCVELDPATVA

Binder	Kd [1] [nM]	koff [1] [s⁻¹]	kon [1] [M⁻¹ s⁻¹]	binding result [2]	binding result [3]
EGFR-CD3 DuetMab with anti-CD3 variant AZ Vκ 17 + AZ VH E79 (bispecific antibody, part only; not given: anti-EGFR arm, constant regions, V domains shown, not shown: another chain or arm of the molecule; a dimerising Fc or GST; small tags and cut ends) VH: EVQLVESGGALVKPGGSLRLSCAASGFTFTEAWMHWVRQAPGKQLEWVAQIKDRSQTYATYYAESVKGRFTISRDDSKNTLYLQMNSLKTEDTAVYYCRGVYYAVTPFDYWGQGTLVTVSS VL: DIVMTQSPLSLPVTPGEPASISCRSSQSLVHNTGNTYLSWYLQKPGQSPQSLIYKVSNRASGVPDRFSGSGSGTDFTLKISRVEAEDVGVYYCGQGTQAPFTFGSGTKVEIK	5620	0.0497	8850		
EGFR-CD3 DuetMab with anti-CD3 variant AZ Vκ 26 + AZ VH R82 (bispecific antibody, part only; not given: anti-EGFR arm, constant regions, V domains shown, not shown: another chain or arm of the molecule; a dimerising Fc or GST; small tags and cut ends) VH: EVQLVESGGALVKPGGSLRLSCAASGFTFTRAWMHWVRQAPGKQLEWVAQIKDRSQTYATYYAESVKGRFTISRDDSKNTLYLQMNSLKTEDTAVYYCRGVYYANTPFDYWGQGTLVTVSS VL: DIVMTQSPLSLPVTPGEPASISCRSSQSLVHNTGNTYLSWYLQKPGQSPQSLIYKVSNRASGVPDRFSGSGSGTDFTLKISRVEAEDVGVYYCGQGTQAPFSFGSGTKVEIK	411	0.00711	17300		
EGFR-CD3 DuetMab with anti-CD3 variant AZ Vκ 26 + AZ VH R75 (bispecific antibody, part only; not given: anti-EGFR arm, constant regions, V domains shown, not shown: another chain or arm of the molecule; a dimerising Fc or GST; small tags and cut ends) VH: EVQLVESGGALVKPGGSLRLSCAASGFTFTRAWMHWVRQAPGKQLEWVAQIKDRSQTYATYYAESVKGRFTISRDDSKNTLYLQMNSLKTEDTAVYYCRGVYYANAPFDYWGQGTLVTVSS VL: DIVMTQSPLSLPVTPGEPASISCRSSQSLVHNTGNTYLSWYLQKPGQSPQSLIYKVSNRASGVPDRFSGSGSGTDFTLKISRVEAEDVGVYYCGQGTQAPFSFGSGTKVEIK	217	0.00605	27900		
EGFR-CD3 DuetMab with anti-CD3 variant AZ Vκ 26 + AZ VH SN75 (bispecific antibody, part only; not given: anti-EGFR arm, constant regions, V domains shown, not shown: another chain or arm of the molecule; a dimerising Fc or GST; small tags and cut ends) VH: EVQLVESGGALVKPGGSLRLSCAASGFTFSNAWMHWVRQAPGKQLEWVAQIKDRSQTYATYYAESVKGRFTISRDDSKNTLYLQMNSLKTEDTAVYYCRGVYYANAPFDYWGQGTLVTVSS VL: DIVMTQSPLSLPVTPGEPASISCRSSQSLVHNTGNTYLSWYLQKPGQSPQSLIYKVSNRASGVPDRFSGSGSGTDFTLKISRVEAEDVGVYYCGQGTQAPFSFGSGTKVEIK	949	0.0155	16300		
EGFR-CD3 DuetMab with anti-CD3 variant AZ Vκ 29 + AZ VH R75 (bispecific antibody, part only; not given: anti-EGFR arm, constant regions, V domains shown, not shown: another chain or arm of the molecule; a dimerising Fc or GST; small tags and cut ends) VH: EVQLVESGGALVKPGGSLRLSCAASGFTFTRAWMHWVRQAPGKQLEWVAQIKDRSQTYATYYAESVKGRFTISRDDSKNTLYLQMNSLKTEDTAVYYCRGVYYANAPFDYWGQGTLVTVSS VL: DIVMTQSPLSLPVTPGEPASISCRSSQSLVHNTGNTYLSWYLQKPGQSPQSLIYKVSNRASGVPDRFSGSGSGTDFTLKISRVEAEDVGVYYCGQGTQFPFTFGSGTKVEIK	224	0.0119	53300		
EGFR-CD3 DuetMab with anti-CD3 variant AZ Vκ 26 + AZ VH SN82 (bispecific antibody, part only; not given: anti-EGFR arm, constant regions, V domains shown, not shown: another chain or arm of the molecule; a dimerising Fc or GST; small tags and cut ends) VH: EVQLVESGGALVKPGGSLRLSCAASGFTFSNAWMHWVRQAPGKQLEWVAQIKDRSQTYATYYAESVKGRFTISRDDSKNTLYLQMNSLKTEDTAVYYCRGVYYANTPFDYWGQGTLVTVSS VL: DIVMTQSPLSLPVTPGEPASISCRSSQSLVHNTGNTYLSWYLQKPGQSPQSLIYKVSNRASGVPDRFSGSGSGTDFTLKISRVEAEDVGVYYCGQGTQAPFSFGSGTKVEIK	1710	0.0212	12400		
EGFR-CD3 DuetMab with anti-CD3 variant AZ Vκ 26 + AZ VH R79 (bispecific antibody, part only; not given: anti-EGFR arm, constant regions, V domains shown, not shown: another chain or arm of the molecule; a dimerising Fc or GST; small tags and cut ends) VH: EVQLVESGGALVKPGGSLRLSCAASGFTFTRAWMHWVRQAPGKQLEWVAQIKDRSQTYATYYAESVKGRFTISRDDSKNTLYLQMNSLKTEDTAVYYCRGVYYAVTPFDYWGQGTLVTVSS VL: DIVMTQSPLSLPVTPGEPASISCRSSQSLVHNTGNTYLSWYLQKPGQSPQSLIYKVSNRASGVPDRFSGSGSGTDFTLKISRVEAEDVGVYYCGQGTQAPFSFGSGTKVEIK	712	0.0233	32700		
EGFR-CD3 DuetMab with anti-CD3 variant AZ Vκ 29 + AZ VH R82 (bispecific antibody, part only; not given: anti-EGFR arm, constant regions, V domains shown, not shown: another chain or arm of the molecule; a dimerising Fc or GST; small tags and cut ends) VH: EVQLVESGGALVKPGGSLRLSCAASGFTFTRAWMHWVRQAPGKQLEWVAQIKDRSQTYATYYAESVKGRFTISRDDSKNTLYLQMNSLKTEDTAVYYCRGVYYANTPFDYWGQGTLVTVSS VL: DIVMTQSPLSLPVTPGEPASISCRSSQSLVHNTGNTYLSWYLQKPGQSPQSLIYKVSNRASGVPDRFSGSGSGTDFTLKISRVEAEDVGVYYCGQGTQFPFTFGSGTKVEIK	595	0.0231	38800		
EGFR-CD3 DuetMab with anti-CD3 variant AZ Vκ 26 + AZ VH E82 (bispecific antibody, part only; not given: anti-EGFR arm, constant regions, V domains shown, not shown: another chain or arm of the molecule; a dimerising Fc or GST; small tags and cut ends) VH: EVQLVESGGALVKPGGSLRLSCAASGFTFTEAWMHWVRQAPGKQLEWVAQIKDRSQTYATYYAESVKGRFTISRDDSKNTLYLQMNSLKTEDTAVYYCRGVYYANTPFDYWGQGTLVTVSS VL: DIVMTQSPLSLPVTPGEPASISCRSSQSLVHNTGNTYLSWYLQKPGQSPQSLIYKVSNRASGVPDRFSGSGSGTDFTLKISRVEAEDVGVYYCGQGTQAPFSFGSGTKVEIK	3920	0.0287	7330		
EGFR-CD3 DuetMab with anti-CD3 variant AZ Vκ 26 + AZ VH E79 (bispecific antibody, part only; not given: anti-EGFR arm, constant regions, V domains shown, not shown: another chain or arm of the molecule; a dimerising Fc or GST; small tags and cut ends) VH: EVQLVESGGALVKPGGSLRLSCAASGFTFTEAWMHWVRQAPGKQLEWVAQIKDRSQTYATYYAESVKGRFTISRDDSKNTLYLQMNSLKTEDTAVYYCRGVYYAVTPFDYWGQGTLVTVSS VL: DIVMTQSPLSLPVTPGEPASISCRSSQSLVHNTGNTYLSWYLQKPGQSPQSLIYKVSNRASGVPDRFSGSGSGTDFTLKISRVEAEDVGVYYCGQGTQAPFSFGSGTKVEIK	4660	0.0511	11000		
EGFR-CD3 DuetMab with anti-CD3 variant AZ Vκ 26 + AZ VH SN79 (bispecific antibody, part only; not given: anti-EGFR arm, constant regions, V domains shown, not shown: another chain or arm of the molecule; a dimerising Fc or GST; small tags and cut ends) VH: EVQLVESGGALVKPGGSLRLSCAASGFTFSNAWMHWVRQAPGKQLEWVAQIKDRSQTYATYYAESVKGRFTISRDDSKNTLYLQMNSLKTEDTAVYYCRGVYYAVTPFDYWGQGTLVTVSS VL: DIVMTQSPLSLPVTPGEPASISCRSSQSLVHNTGNTYLSWYLQKPGQSPQSLIYKVSNRASGVPDRFSGSGSGTDFTLKISRVEAEDVGVYYCGQGTQAPFSFGSGTKVEIK	1930	0.0361	18700		
EGFR-CD3 DuetMab with anti-CD3 variant AZ Vκ 29 + AZ VH R79 (bispecific antibody, part only; not given: anti-EGFR arm, constant regions, V domains shown, not shown: another chain or arm of the molecule; a dimerising Fc or GST; small tags and cut ends) VH: EVQLVESGGALVKPGGSLRLSCAASGFTFTRAWMHWVRQAPGKQLEWVAQIKDRSQTYATYYAESVKGRFTISRDDSKNTLYLQMNSLKTEDTAVYYCRGVYYAVTPFDYWGQGTLVTVSS VL: DIVMTQSPLSLPVTPGEPASISCRSSQSLVHNTGNTYLSWYLQKPGQSPQSLIYKVSNRASGVPDRFSGSGSGTDFTLKISRVEAEDVGVYYCGQGTQFPFTFGSGTKVEIK	878	0.0487	55500		
EGFR-CD3 DuetMab with anti-CD3 variant AZ Vκ 26 + AZ VH E75 (bispecific antibody, part only; not given: anti-EGFR arm, constant regions, V domains shown, not shown: another chain or arm of the molecule; a dimerising Fc or GST; small tags and cut ends) VH: EVQLVESGGALVKPGGSLRLSCAASGFTFTEAWMHWVRQAPGKQLEWVAQIKDRSQTYATYYAESVKGRFTISRDDSKNTLYLQMNSLKTEDTAVYYCRGVYYANAPFDYWGQGTLVTVSS VL: DIVMTQSPLSLPVTPGEPASISCRSSQSLVHNTGNTYLSWYLQKPGQSPQSLIYKVSNRASGVPDRFSGSGSGTDFTLKISRVEAEDVGVYYCGQGTQAPFSFGSGTKVEIK	2280	0.0172	7540		
EGFR-CD3 DuetMab with anti-CD3 variant AZ Vκ 17 + AZ VH E82 (bispecific antibody, part only; not given: anti-EGFR arm, constant regions, V domains shown, not shown: another chain or arm of the molecule; a dimerising Fc or GST; small tags and cut ends) VH: EVQLVESGGALVKPGGSLRLSCAASGFTFTEAWMHWVRQAPGKQLEWVAQIKDRSQTYATYYAESVKGRFTISRDDSKNTLYLQMNSLKTEDTAVYYCRGVYYANTPFDYWGQGTLVTVSS VL: DIVMTQSPLSLPVTPGEPASISCRSSQSLVHNTGNTYLSWYLQKPGQSPQSLIYKVSNRASGVPDRFSGSGSGTDFTLKISRVEAEDVGVYYCGQGTQAPFTFGSGTKVEIK	4610	0.033	7140		
AZ Vκ 7 + AZ VH 21 (antibody, IgG1, V domains shown, member of the group m34) VH: EVQLVESGGALVKPGGSLRLSCAASGFTFSNAYMHWVRQAPGKQLEWVAQIKDRSQSYATYYAESVKGRFTISRDDSKNTLYLQMNSLKTEDTAVYYCRGVYYALSPFDYWGQGTLVTVSS VL: DIVMTQSPLSLPVTPGEPASISCRSSQSLVHNTGNTYLSWYLQKPGQSPQSLIYKVSNRASGVPDRFSGSGSGTDFTLKISRVEAEDVGVYYCGQGTQYPFTFGSGTKVEIK				binds	binds
AZ Vκ 7 + AZ VH 13 (antibody, IgG1, V domains shown, member of the group m34) VH: EVQLVESGGALVKPGGSLRLSCAASGFTFTKAYMHWVRQAPGKQLEWVAQIKDRSQSYATYYAESVKGRFTISRDDSKNTLYLQMNSLKTEDTAVYYCRGVYYALSPFDYWGQGTLVTVSS VL: DIVMTQSPLSLPVTPGEPASISCRSSQSLVHNTGNTYLSWYLQKPGQSPQSLIYKVSNRASGVPDRFSGSGSGTDFTLKISRVEAEDVGVYYCGQGTQYPFTFGSGTKVEIK				binds	binds
